This passage reports Kd results from US20220135701A1 (Genentech, published 2022).

Where two headings read alike, the source gives them in different places.

Assay [1] addresses T1, human MerTK (human, UniProt Q12866 26-499).
T1 construct: also called HuMER
T1 sequence: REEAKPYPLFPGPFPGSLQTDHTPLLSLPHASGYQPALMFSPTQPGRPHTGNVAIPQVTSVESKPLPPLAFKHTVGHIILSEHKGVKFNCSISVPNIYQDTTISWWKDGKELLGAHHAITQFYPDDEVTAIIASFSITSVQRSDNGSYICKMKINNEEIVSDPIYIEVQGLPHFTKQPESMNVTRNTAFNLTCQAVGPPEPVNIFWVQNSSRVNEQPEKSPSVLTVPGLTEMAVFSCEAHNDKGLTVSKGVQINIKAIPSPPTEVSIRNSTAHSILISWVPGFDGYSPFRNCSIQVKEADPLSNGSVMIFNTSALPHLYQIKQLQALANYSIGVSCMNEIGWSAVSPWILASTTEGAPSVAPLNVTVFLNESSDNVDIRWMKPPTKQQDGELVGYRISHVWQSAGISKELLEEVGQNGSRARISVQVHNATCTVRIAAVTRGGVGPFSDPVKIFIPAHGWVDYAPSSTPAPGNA
Put plainly: SPR BIAcore T200, Ab captured, 37C.

The target of assay [2] is T1, human MerTK. Briefly: SPR BIAcore T200, Ab captured, 37C. On the procedure:
(§1) All binding affinity determinations were obtained using Surface Plasmon Resonance (SPR) measurements from a BIAcore™-T200 instrument. Briefly, each rabbit or humanized antibody was captured to achieve approximately 100 RU (Response Units). Then, 3-fold serial dilutions of MerTK from various species (0.4 nM to 100 nM) diluted in HBS-EP buffer (0.01M HEPES pH 7.4, 0.15M NaCl, 3 mM EDTA and 0.05% v/v surfactant P20) was injected into the BIAcore™-T200 instrument at 25° C. or 37° C. with a flow rate of 30 μl/min. Association rates (kₒₙ) and dissociation rates (koff) were calculated using a simple one-to-one Langmuir binding model (BIAcore T200 evaluation software version 2.0). The equilibrium dissociation constant (KD) was calculated as the ratio koff/kₒₙ.
The source holds these as a separate data set.

For assay [3], the target named is T2, cynomolgus monkey MerTK (cynomolgus monkey, UniProt A0A2K5V1H9 32-505).
T2 construct: Soluble analyte in SPR; also called Cyno MerTK
T2 sequence: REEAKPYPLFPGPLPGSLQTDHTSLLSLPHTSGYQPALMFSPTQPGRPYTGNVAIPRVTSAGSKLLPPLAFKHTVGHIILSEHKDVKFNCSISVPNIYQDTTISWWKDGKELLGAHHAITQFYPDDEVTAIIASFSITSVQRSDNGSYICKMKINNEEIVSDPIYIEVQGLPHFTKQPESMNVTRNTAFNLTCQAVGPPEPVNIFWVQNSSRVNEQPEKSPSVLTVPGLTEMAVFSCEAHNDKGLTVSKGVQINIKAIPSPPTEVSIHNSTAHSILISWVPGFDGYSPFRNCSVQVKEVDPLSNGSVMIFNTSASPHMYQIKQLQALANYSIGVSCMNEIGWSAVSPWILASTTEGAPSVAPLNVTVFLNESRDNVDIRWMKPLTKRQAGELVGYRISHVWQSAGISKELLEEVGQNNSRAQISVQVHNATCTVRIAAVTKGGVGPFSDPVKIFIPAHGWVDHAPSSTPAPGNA
Briefly: SPR BIAcore T200, Ab captured, 37C. On the procedure:
as §1

Assay [4] concerns the target T3, rat MerTK (rat, UniProt P57097 23-496, limits assumed).
T3 construct: Soluble analyte in SPR
T3 sequence (looked up): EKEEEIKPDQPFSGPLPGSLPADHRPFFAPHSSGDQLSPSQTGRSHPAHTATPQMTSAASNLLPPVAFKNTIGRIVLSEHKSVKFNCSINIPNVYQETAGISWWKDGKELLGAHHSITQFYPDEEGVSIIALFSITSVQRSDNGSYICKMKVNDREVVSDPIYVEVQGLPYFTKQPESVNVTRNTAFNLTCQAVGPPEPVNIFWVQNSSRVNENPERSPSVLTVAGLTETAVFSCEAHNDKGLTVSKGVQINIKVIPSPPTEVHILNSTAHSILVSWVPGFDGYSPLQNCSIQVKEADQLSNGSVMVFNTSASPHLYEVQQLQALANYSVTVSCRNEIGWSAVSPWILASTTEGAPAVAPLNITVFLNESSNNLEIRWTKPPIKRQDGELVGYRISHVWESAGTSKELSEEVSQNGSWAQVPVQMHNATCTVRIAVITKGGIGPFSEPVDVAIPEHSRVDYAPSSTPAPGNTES
Put plainly: SPR BIAcore T200, Ab captured, 37C. On the procedure:
as §1
Background: SPR reads the build-up and loss of mass on a sensor chip optically.

Assay [5] has as its target T4, mouse MerTK (mouse, UniProt Q60805 23-496).
T4 construct: also called MuMER
T4 sequence (looked up): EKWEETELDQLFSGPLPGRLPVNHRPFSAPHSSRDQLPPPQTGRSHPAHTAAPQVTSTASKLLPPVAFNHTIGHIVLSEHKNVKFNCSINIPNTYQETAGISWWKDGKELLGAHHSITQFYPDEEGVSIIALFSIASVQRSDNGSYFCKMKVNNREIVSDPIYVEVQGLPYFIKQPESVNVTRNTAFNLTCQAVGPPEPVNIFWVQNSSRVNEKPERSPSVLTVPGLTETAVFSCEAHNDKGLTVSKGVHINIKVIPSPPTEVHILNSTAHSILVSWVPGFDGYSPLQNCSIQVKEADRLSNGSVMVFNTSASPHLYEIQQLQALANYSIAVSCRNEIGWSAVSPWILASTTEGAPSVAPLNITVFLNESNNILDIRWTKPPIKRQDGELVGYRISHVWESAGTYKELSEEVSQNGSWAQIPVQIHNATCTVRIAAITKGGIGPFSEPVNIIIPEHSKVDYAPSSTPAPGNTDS
Briefly: SPR BIAcore T200, Ab captured, 37C. On the procedure: as §1

The target of assay [6] is T1, human MerTK. Briefly: SPR BIAcore T200, Ab captured, 37C. On the procedure:
(§2) Each rabbit and humanized antibody was subjected to a binding assay to determine its affinity to MerTK derived from various species.
as §1
This is another data set of the same source.

The target in assay [7] is T2, cynomolgus monkey MerTK. Put plainly: SPR BIAcore T200, Ab captured, 37C. On the procedure: as §2, §1
This is another data set of the same source.

The target of assay [8] is T3, rat MerTK. Briefly: SPR BIAcore T200, Ab captured, 37C. On the procedure: as §2, §1
The source holds these as a separate data set.

The target of assay [9] is T4, mouse MerTK. Briefly: SPR BIAcore T200, Ab captured, 37C. On the procedure: as §2, §1
The source holds these as a separate data set.

The target of assay [10] is T1, human MerTK. Put plainly: SPR BIAcore T200, Ab captured, 25C. On the procedure: as §1
For assay [11], the target named is T2, cynomolgus monkey MerTK. Put plainly: SPR BIAcore T200, Ab captured, 25C. On the procedure: as §1
Assay [12] addresses T4, mouse MerTK. Briefly: SPR BIAcore T200, Ab captured, 25C. On the procedure:
as §1

A further assay deals with T5, MuMER.Ig1&2 (A70-P279) (mouse, UniProt Q60805 70-279).
T5 construct: range 70-279; also called mouse MerTK Ig-like 1&2 domains
T5 sequence (looked up): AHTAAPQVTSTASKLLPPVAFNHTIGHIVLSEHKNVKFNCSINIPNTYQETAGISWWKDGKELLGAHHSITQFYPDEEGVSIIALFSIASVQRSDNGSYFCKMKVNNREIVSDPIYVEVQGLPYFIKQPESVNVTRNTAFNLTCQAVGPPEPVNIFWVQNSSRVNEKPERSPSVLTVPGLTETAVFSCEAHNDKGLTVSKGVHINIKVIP
Put plainly: SPR BIAcore T200, Ab captured, 25C. On the procedure:
(§3) Binding affinity determinations were obtained using Surface Plasmon Resonance (SRP) measurements from a BIAcore™-T200 instrument. Briefly, each rabbit antibody was captured to achieve approximately 100 RU (Response Units). Then, 3-fold serial dilutions of the various MerTK domains (0.4 nM to 100 nM) diluted in HBS-EP buffer (0.01M HEPES pH 7.4, 0.15M NaCl, 3 mM EDTA and 0.05% v/v surfactant P20) was injected into the BIAcore™-T200 instrument at 25° C. or 37° C. with a flow rate of 30 μl/min. Association rates (kₒₙ) and dissociation rates (koff) were calculated using a simple one-to-one Langmuir binding model (BIAcore T200 evaluation software version 2.0). The equilibrium dissociation constant (KD) was calculated as the ratio koff/kₒₙ.
(§4) Antibody epitope determination was assessed by BIAcore analysis for rabbit antibodies binding against both the human and mouse MerTK extracellular domain (HuMER R26-A499 and MuMER E23-S496), Ig1&2 domain, Ig1-only domain, and Ig2-only domain (TABLE 18). Human MerTK and its domains are shown in light gray, while mouse MerTK and its domains are shown in dark gray.

The next assay concerns the target T6, HuMER (R26-A499) (human, UniProt Q12866 26-499).
T6 construct: Extracellular domain with both Ig-like and both fibronectin-like domains; also called human MerTK extracellular domain
T6 sequence: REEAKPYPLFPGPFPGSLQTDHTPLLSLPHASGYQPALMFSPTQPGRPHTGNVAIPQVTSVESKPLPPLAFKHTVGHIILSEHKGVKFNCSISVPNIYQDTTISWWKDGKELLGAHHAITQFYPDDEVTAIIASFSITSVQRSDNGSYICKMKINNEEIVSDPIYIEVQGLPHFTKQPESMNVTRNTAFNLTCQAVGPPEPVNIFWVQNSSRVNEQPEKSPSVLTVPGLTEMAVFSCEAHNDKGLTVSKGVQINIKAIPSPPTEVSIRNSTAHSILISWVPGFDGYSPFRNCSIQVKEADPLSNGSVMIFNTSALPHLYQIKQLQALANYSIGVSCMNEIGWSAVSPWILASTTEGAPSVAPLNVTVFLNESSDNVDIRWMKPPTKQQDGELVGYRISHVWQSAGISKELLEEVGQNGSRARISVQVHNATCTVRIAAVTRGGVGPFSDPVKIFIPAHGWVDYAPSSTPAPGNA
Briefly: SPR BIAcore T200, Ab captured, 25C. On the procedure:
as §3, §4

Another assay has as its target T7, HuMER.Ig1 (G76-G195) (human, UniProt Q12866 76-195).
T7 construct: also called human MerTK Ig-like 1 domain
T7 sequence: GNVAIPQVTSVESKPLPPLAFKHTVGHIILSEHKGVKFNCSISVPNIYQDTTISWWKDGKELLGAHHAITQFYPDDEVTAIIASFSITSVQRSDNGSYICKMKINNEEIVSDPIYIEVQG
Put plainly: SPR BIAcore T200, Ab captured, 25C. On the procedure: as §3, §4

The target in another assay is T8, MuMER (E23-S496) (mouse, UniProt Q60805 23-496).
T8 construct: range 23-496; also called mouse MerTK extracellular domain
T8 sequence (looked up): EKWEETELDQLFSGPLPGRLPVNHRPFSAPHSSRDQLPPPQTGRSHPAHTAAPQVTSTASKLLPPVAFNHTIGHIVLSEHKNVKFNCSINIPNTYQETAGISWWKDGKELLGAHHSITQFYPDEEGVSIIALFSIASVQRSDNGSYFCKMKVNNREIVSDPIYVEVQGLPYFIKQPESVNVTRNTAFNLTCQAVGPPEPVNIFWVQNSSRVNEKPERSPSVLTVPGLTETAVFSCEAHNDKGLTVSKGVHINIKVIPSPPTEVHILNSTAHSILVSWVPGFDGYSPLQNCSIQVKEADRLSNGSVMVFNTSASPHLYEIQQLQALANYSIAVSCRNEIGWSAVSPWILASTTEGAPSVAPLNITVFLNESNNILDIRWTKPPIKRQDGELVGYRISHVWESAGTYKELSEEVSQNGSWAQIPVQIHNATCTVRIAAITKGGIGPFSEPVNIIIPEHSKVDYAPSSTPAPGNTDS
Put plainly: SPR BIAcore T200, Ab captured, 25C. On the procedure: as §3, §4

B1: h10F7.v1 (antibody, V domains shown)
VH: EQQLVESGGGLVQPGGSLRLSCAVSGFSLSGYAMSWVRQAPGKGLEYIGVISSSGSSYYPSWAKGRFTISKDSSKNTVYLQMGSLRAEDMAVYFCARVQFYVGYAVYGYGIIDRLDLWGQGTLVTVSS
VL: DAVLTQSPDSLAVSLGERATINCQSSKSVYNNNWLSWYQQKPGQPPKLLIYRASTLESGVPDRFSGSGSGTDFTLTISSLQAEDVAVYFCAGGYSSSSSANAFGGGTKVEIK
notes: also called h10F7.V1 (Parent); 10F7 Humanized mAb V1
As to B1, the Kd is 7.3 nM with human MerTK [1]; 7.1 nM with human MerTK [2]; 3.1 nM with cynomolgus monkey MerTK [3]; 3.6 nM with rat MerTK [4]; 1.5 nM with mouse MerTK [5]; 6.7 nM in the assay with human MerTK [6]. The Kd with cynomolgus monkey MerTK [7] came to 3 nM; with rat MerTK [8] it was 4.1 nM; with mouse MerTK [9], 1.5 nM.

B2: Rbt11G11 (antibody, V domains shown)
VH: QELVESGGGLVQAGESLKLSCKASGIDFSSYGISWVRQAPGKGLEWIAYIYPGFGITNYAHSVKGRFTISSDNAQNTVFLQMPSLTASDTATYFCARDLDYTGGVVGYAYVTYYFTLWGPGTLVTVSS
VL: DPVLTQTPSSVEAAVGGTVTIKCQASESISSRLAWYQQKPGQPPKLLIYSASTLASGVSSRFKGSGSGTEFTLTISDLECADAATYYCQTYYGGSTTGWYVFGGGTEVVVK
notes: Recombinant rabbit monoclonal antibody, Expi293, protein A purified
Regarding B2, the Kd with human MerTK [10] came to 31.3 nM; in the assay with cynomolgus monkey MerTK [11], 14.3 nM; with mouse MerTK [12] it was 4.1 nM; in the assay with MuMER.Ig1&2 (A70-P279), 3.4 nM; in the assay with HuMER (R26-A499), 31.3 nM; with HuMER.Ig1 (G76-G195) it was 39.8 nM. In addition, in the assay with MuMER (E23-S496), the Kd was found to be 4.1 nM.

As a reminder, the Kd is the constant that tells how readily two partners part at equilibrium.
